Reference: article PMC3252255, “Heterologous overexpression of Glomerella cingulata FAD-dependent glucose dehydrogenase in Escherichia coli and Pichia pastoris” (Microbial Cell Factories, 2011)

T1: recGcGDH (recombinant Glomerella cingulata FAD-dependent glucose dehydrogenase) (Colletotrichum gloeosporioides, UniProt G8E4B5)
T1 construct: gene gdh; native stop codon in primer, no tag; glycosylated, 88-131 kDa on SDS-PAGE, 67 kDa deglycosylated
T1 sequence (G8E4B5 17-600): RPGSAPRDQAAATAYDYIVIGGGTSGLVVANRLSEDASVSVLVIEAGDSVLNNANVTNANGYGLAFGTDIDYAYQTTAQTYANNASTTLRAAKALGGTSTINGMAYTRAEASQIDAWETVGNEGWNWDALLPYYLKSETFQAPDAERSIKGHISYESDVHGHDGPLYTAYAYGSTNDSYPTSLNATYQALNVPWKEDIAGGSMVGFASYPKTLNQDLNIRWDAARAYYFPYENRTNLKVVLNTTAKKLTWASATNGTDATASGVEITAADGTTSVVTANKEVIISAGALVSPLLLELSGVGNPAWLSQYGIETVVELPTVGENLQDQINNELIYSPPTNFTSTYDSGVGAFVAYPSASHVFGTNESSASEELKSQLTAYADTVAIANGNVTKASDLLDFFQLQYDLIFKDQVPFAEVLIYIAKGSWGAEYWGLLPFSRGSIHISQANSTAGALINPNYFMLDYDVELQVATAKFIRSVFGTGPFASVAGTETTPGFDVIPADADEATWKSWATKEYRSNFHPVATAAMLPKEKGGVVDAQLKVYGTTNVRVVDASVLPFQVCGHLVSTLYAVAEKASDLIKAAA


Columns and labels:
[1] = target: T1, recGcGDH (recombinant Glomerella cingulata FAD-dependent glucose dehydrogenase); test: UV/Vis absorption spectrum of purified enzyme, oxidized and glucose-reduced; assay type: binding; details: 50 mM citrate pH 5.5, room temperature; FAD bound as purified
[2] = substrate: OC[C@H]1OC(O)[C@H](O)[C@@H](O)[C@@H]1O; test: steady-state kinetics, spectrophotometric ferrocenium reduction; assay type: biochemical, Colletotrichum gloeosporioides; details: pH 5.5, 30°C, ferrocenium hexafluorophosphate as electron acceptor (20 μM in table, 200 μM in methods), also measured at pH 7.5
From the text: steady-state kinetics, spectrophotometric ferrocenium reduction on recGcGDH (recombinant Glomerella cingulata FAD-dependent glucose dehydrogenase)

Row | Molecule | UV/Vis absorption spectrum of purified enzyme, oxidized and glucose-reduced [1] | Km [2] [mM] | kcat [2] [s⁻¹] | kcat/Km [2] [M⁻¹ s⁻¹]
1 | Cc1cc2nc3c(=O)[nH]c(=O)nc-3n(C[C@H](O)[C@H](O)[C@H](O)COP(=O)(O)OP(=O)(O)OC[C@H]3O[C@@H](n4cnc5c(N)ncnc54)[C@H](O)[C@@H]3O)c2cc1C [FAD] | typical flavoprotein spectrum shows the same characteristics as the spectrum of wild-type GcGDH |  |  | 
2 | recGcGDH (recombinant Glomerella cingulata FAD-dependent glucose dehydrogenase) (Colletotrichum gloeosporioides) (protein, native stop codon in primer, no tag; glycosylated, 88-131 kDa on SDS-PAGE, 67 kDa deglycosylated) RPGSAPRDQAAATAYDYIVIGGGTSGLVVANRLSEDASVSVLVIEAGDSVLNNANVTNANGYGLAFGTDIDYAYQTTAQTYANNASTTLRAAKALGGTSTINGMAYTRAEASQIDAWETVGNEGWNWDALLPYYLKSETFQAPDAERSIKGHISYESDVHGHDGPLYTAYAYGSTNDSYPTSLNATYQALNVPWKEDIAGGSMVGFASYPKTLNQDLNIRWDAARAYYFPYENRTNLKVVLNTTAKKLTWASATNGTDATASGVEITAADGTTSVVTANKEVIISAGALVSPLLLELSGVGNPAWLSQYGIETVVELPTVGENLQDQINNELIYSPPTNFTSTYDSGVGAFVAYPSASHVFGTNESSASEELKSQLTAYADTVAIANGNVTKASDLLDFFQLQYDLIFKDQVPFAEVLIYIAKGSWGAEYWGLLPFSRGSIHISQANSTAGALINPNYFMLDYDVELQVATAKFIRSVFGTGPFASVAGTETTPGFDVIPADADEATWKSWATKEYRSNFHPVATAAMLPKEKGGVVDAQLKVYGTTNVRVVDASVLPFQVCGHLVSTLYAVAEKASDLIKAAA |  | 10.1 ± 0.4 | 179 ± 4 | 17700
